Experimental data from ChEMBL document CHEMBL1255339, “Biochemical characterization of SHV-55, an extended-spectrum class A beta-lactamase from Klebsiella pneumoniae” (Antimicrob Agents Chemother, 2008).

What was measured:
[1] = substrate: CC1(C)S[C@@H]2[C@H](NC(=O)Cc3ccccc3)C(=O)N2[C@H]1C(=O)O; assay: (§1) Activity of Klebsiella pneumoniae Beta-Lactamase SHV-1
[2] = substrate: CC1(C)S[C@@H]2[C@H](NC(=O)[C@H](C(=O)O)c3ccsc3)C(=O)N2[C@H]1C(=O)O; assay: as §1
[3] = substrate: CO/N=C(\C(=O)N[C@@H]1C(=O)N2C(C(=O)O)=C(COC(N)=O)CS[C@H]12)c1ccco1; assay: as §1
[4] = substrate: CO/N=C(\C(=O)N[C@@H]1C(=O)N2C(C(=O)[O-])=C(C[N+]3(C)CCCC3)CS[C@H]12)c1csc(N)n1; assay: as §1
[5] = substrate: C[C@H]1[C@H](NC(=O)/C(=N\OC(C)(C)C(=O)O)c2csc(N)n2)C(=O)N1S(=O)(=O)O; assay: as §1
[6] = substrate: CC1(C)S[C@@H]2[C@H](NC(=O)Cc3ccccc3)C(=O)N2[C@H]1C(=O)O; assay: (§2) Ratio of Kcat to Km for Klebsiella pneumoniae Beta-Lactamase SHV-55
[7] = substrate: CC1(C)S[C@@H]2[C@H](NC(=O)[C@H](C(=O)O)c3ccsc3)C(=O)N2[C@H]1C(=O)O; assay: as §2
[8] = substrate: CCN1CCN(C(=O)N[C@@H](C(=O)N[C@@H]2C(=O)N3[C@@H]2SC(C)(C)[C@@H]3C(=O)O)c2ccccc2)C(=O)C1=O; assay: as §2
[9] = substrate: CO/N=C(\C(=O)N[C@@H]1C(=O)N2C(C(=O)O)=C(COC(N)=O)CS[C@H]12)c1ccco1; assay: as §2
[10] = substrate: CO/N=C(\C(=O)N[C@@H]1C(=O)N2C(C(=O)[O-])=C(C[N+]3(C)CCCC3)CS[C@H]12)c1csc(N)n1; assay: as §2
[11] = substrate: CC1(C)S[C@@H]2[C@H](NC(=O)Cc3ccccc3)C(=O)N2[C@H]1C(=O)O; assay: (§3) Activity of Klebsiella pneumoniae Beta-Lactamase SHV-55
[12] = substrate: CC1(C)S[C@@H]2[C@H](NC(=O)[C@H](C(=O)O)c3ccsc3)C(=O)N2[C@H]1C(=O)O; assay: as §3
[13] = substrate: CCN1CCN(C(=O)N[C@@H](C(=O)N[C@@H]2C(=O)N3[C@@H]2SC(C)(C)[C@@H]3C(=O)O)c2ccccc2)C(=O)C1=O; assay: as §3
[14] = substrate: CO/N=C(\C(=O)N[C@@H]1C(=O)N2C(C(=O)O)=C(COC(N)=O)CS[C@H]12)c1ccco1; assay: as §3
[15] = substrate: CO/N=C(\C(=O)N[C@@H]1C(=O)N2C(C(=O)[O-])=C(C[N+]3(C)CCCC3)CS[C@H]12)c1csc(N)n1; assay: as §3
[16] = substrate: C[C@H]1[C@H](NC(=O)/C(=N\OC(C)(C)C(=O)O)c2csc(N)n2)C(=O)N1S(=O)(=O)O; assay: as §3

B1: Beta-lactamase SHV-1 (Klebsiella pneumoniae), P0AD64 (protein)
chain: MRYIRLCIISLLATLPLAVHASPQPLEQIKLSESQLSGRVGMIEMDLASGRTLTAWRADERFPMMSTFKVVLCGAVLARVDAGDEQLERKIHYRQQDLVDYSPVSEKHLADGMTVGELCAAAITMSDNSAANLLLATVGGPAGLTAFLRQIGDNVTRLDRWETELNEALPGDARDTTTPASMAATLRKLLTSQRLSARSQRQLLQWMVDDRVAGPLIRSVLPAGWFIADKTGAGERGARGIVALLGPNNKAERIVVIYLRDTPASMAERNQQIAGIGAALIEHWQR
With B1 the Km [1] was 23 µM, the kcat [2] was 220 s⁻¹ and the Km [3] was 80 µM. It also gave a kcat [3] of under 0.1 s⁻¹, a Km [4] of 149 µM and a kcat [4] of under 0.1 s⁻¹. The kcat [5] was under 0.1 s⁻¹.

B2: Beta-lactamase SHV-55 (Klebsiella pneumoniae), Q4TVR4 (protein)
chain: MRFIRLCIISLLATLPLAVHASPQPLEQIKLSESQLSGRVGMIEMDLASGRTLTAWRADERFPMMSTFKVVLCGAVLARVDAGDEQLERKIHYRQQDLVDYSPVSEKHLADGMTVGELCAAAITMSDNSAANLLLATVGGPAGLTAFLRQIGDNVTRLDRWETELNEALPGDARDTTTPASMAATLRKLLTSQRLSARSQRQLLQWMVDDRVAGPLIRSVLPAGWFIADKTGASKRGARGIVALLGPNNKAERIVVIYLRDTPASMAERNQQIAGIGAALIEHWQR
For B2, the kcat/Km [6] was 5.3e+06 M⁻¹ s⁻¹, the kcat/Km [7] was 1.5e+06 M⁻¹ s⁻¹ and the kcat/Km [8] was 3.7e+06 M⁻¹ s⁻¹. For the same protein, the kcat/Km [9] was 300000 M⁻¹ s⁻¹, the kcat/Km [10] was 200000 M⁻¹ s⁻¹ and the Km [11] was 5 µM. For the same protein, the Km [12] was 6 µM, the kcat [12] was 8 s⁻¹ and the Km [13] was 8 µM. For the same protein, the kcat [13] was 27 s⁻¹, the kcat [14] was 7 s⁻¹ and the Km [15] was 149 µM. For the same protein, the kcat [15] was 30 s⁻¹, the Km [16] was 5 µM and the kcat [16] was under 0.1 s⁻¹.
